Assay [1] addresses endogenous CRF-R2β of A7r5 rat aortic smooth muscle cells (rat), P47866. Briefly: cell-based or functional assay.
Assay [2] deals with rat CRF receptor type 2α (rat) (UniProt P47866). Briefly: radioligand displacement ([125I-Tyr0,Glu1,Nle17]-sauvagine), CHO membranes.
Assay [3] deals with mouse CRF receptor type 2β (mouse) (UniProt Q60748). Described as above.

Where no end group is shown, it is not given here.

Chain of endogenous CRF-R2β of A7r5 rat aortic smooth muscle cells (rat), P47866 (P47866 20-411): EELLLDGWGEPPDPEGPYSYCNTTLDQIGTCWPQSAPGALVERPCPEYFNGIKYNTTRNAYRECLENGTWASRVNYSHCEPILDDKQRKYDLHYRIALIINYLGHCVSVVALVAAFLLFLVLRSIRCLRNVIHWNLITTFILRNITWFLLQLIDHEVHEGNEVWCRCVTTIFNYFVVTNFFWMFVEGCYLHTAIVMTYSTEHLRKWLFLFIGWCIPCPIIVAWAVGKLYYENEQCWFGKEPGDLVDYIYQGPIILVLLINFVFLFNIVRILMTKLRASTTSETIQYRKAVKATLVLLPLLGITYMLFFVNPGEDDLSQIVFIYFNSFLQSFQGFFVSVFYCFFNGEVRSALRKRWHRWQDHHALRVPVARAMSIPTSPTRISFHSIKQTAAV
Chain of rat CRF receptor type 2α (rat) (P47866 20-411): as above

On to VILSLDVPIGLLRILLEQARYKAARNQAATNAQILAHV (peptide, UniProt Q99ML8 73-110, looked up) [Urocortin II (mouse), Q99ML8 73-110], for which, in assay [1], the cAMP accumulation in A7r5 rat aortic smooth muscle cells, EC50 stood at 0.18 nM.
As for VILSLDVPIGLLRILLEQARYKAARNQAATNAQILAHV (peptide, UniProt Q99ML8 73-110, looked up) [Urocortin II (mouse)], the Ki (in general, a measure of affinity in units of concentration, obtained from inhibition or displacement) in assay [2] was determined as 2.1 nM; in assay [3] it was 0.66 nM.
Take FTLSLDVPTNIMNILFNIDKAKNLRAKAAANAQLMAQI-NH2 [Urocortin III (mouse)]: the inhibitory constant (Ki) in assay [2] was determined as 5 nM; in assay [3] it was 1.8 nM. Also, the cAMP accumulation in A7r5 rat aortic smooth muscle cells, EC50 in assay [1] came out at 3.7 nM.
Take IVLSLDVPIGLLQILLEQARARAAREQATTNARILARV (peptide, UniProt Q96RP3 72-109, looked up) [Urocortin II (human)]: the Ki in assay [2] was determined as 1.7 nM; in assay [3] it was 0.5 nM.
With FTLSLDVPTNIMNLLFNIAKAKNLRAQAAANAHLMAQI-NH2 [Urocortin III (human)], the figures for the Ki in assay [2] and in assay [3] were 21.7 nM and 13.5 nM, respectively. In assay [1], this molecule gave a cAMP accumulation in A7r5 rat aortic smooth muscle cells, EC50 of 80.9 nM.

The values are drawn from patent US20040143095A1.
